From FireProtDB (doi:10.1016/s0022-2836(99)80018-7)

Settings: Bacillus amyloliquefaciens; pH 6.3; 25 °C; Urea; Fluorescence; MES 50 mM; reversible: yes; whole UniProt chain shown

B1: Ribonuclease wild type, P00648 (protein)
chain: MMKMEGIALKKRLSWISVCLLVLVSAAGMLFSTAAKTETSSHKAHTEAQVINTFDGVADYLQTYHKLPDNYITKSEAQALGWVASKGNLADVAPGKSIGGDIFSNREGKLPGKSGRTWREADINYTSGFRNSDRILYSSDWLIYKTTDHYQTFTKIR
Q: With B1 as the protein, how does the denaturant m value read?
A: 2.02 kcal/mol/M

Q: What about the “denaturant midpoint (higher = more stable)” value of the same protein?
A: 4.58 M

Q: And the unfolding free energy?
A: 9.93 kcal/mol
